Experiment [1] has as its target αvβ3 integrin on cells (U87MG glioblastoma cells; K562-αvβ3 cells) (UniProt P06756). Kind of experiment: competing off binding of ^125I-echistatin (U87MG cells).
Experiment [2] addresses T1, αvβ3 integrin on cells (U87MG glioblastoma cells; K562-αvβ3 cells) (UniProt P06756 31-1048; P05106 27-788).
T1 construct: whole, on cells; also called cell surface αvβ3 integrin
Kind of experiment: competition with ^125I-echistatin on U87MG cells.

For experiment [3], the target named is T2, α5β1 integrin (detergent-solubilized) (UniProt P08648 42-1049; P05556 21-798).
T2 construct: Coated on microtiter plates; also called integrin α5β1
Kind of experiment: competition with ^125I-echistatin on plate-coated detergent-solubilized integrin.

No end group written: not given here.

In experiment [1], WT (synthesized Agouti peptide) gave an IC50 of 1400 nM.

B1: ^64Cu-DOTA-7C AgRP engineered peptide (designed binder)
chain: GCVRLHESCLGQQVPCCDPAATCYCYGRGDNDLRCYCR
modifications: ends and bridges not checked; also: DOTA-64Cu label (site not given here)
notes: also called ^64Cu Labeled AgRP loop 4 RDG mutant (peptide 7C); labeled 7C
For the molecule B1, the binding result in experiment [2] is given as “binds”.

As for QCESGPCCRNCKFLKEGTICKRARGDDMDDYCNGKTCDCPRNPHKGPAT (ligand, ends and bridges not checked; cysteine pairing not given here) [echistatin (unlabeled)], in experiment [3], the binding result is “binds”.

Source of the values: patent US20140010757A1 (Stanford University, published 2014).
